Series [1] addresses LdcI R468E (E. coli) (UniProt P0A9H3). Description: negative stain EM.
Series [2] addresses LdcI-Dendra2_(T69A) (C-terminal fluorescent protein fusion of LdcI) (E. coli | not stated). Put plainly: negative stain EM.
Series [3] addresses Dendra2_(T69A)-LdcI (N-terminal fluorescent protein fusion of LdcI) (not stated | E. coli). Put plainly: negative stain EM.
In series [4] the target is LdcI R97E/R468E (E. coli) (UniProt P0A9H3). Description: negative stain EM.
The target in series [5] is LdcI E445A/D447A/R468E (E. coli) (UniProt P0A9H3). Put plainly: negative stain EM.
Series [6] deals with the molecule itself. Put plainly: negative stain EM.
Series [7] concerns the molecule itself. Put plainly: cryo-EM structure.
Series [8] concerns the molecule itself. Put plainly: negative stain EM. The source holds these as a separate data set.

Positions count from the first letter of the chain named. Names may count otherwise.

Experimental findings from doi:10.1101/2020.05.12.090381 (bioRxiv, 2020) are described below.

In turn, “LdcI R468E (from UniProt P0A9H3 1-715) (enzyme)” returned a stoichiometry N in series [1] of 10.

The molecule “LdcI-Dendra2_(T69A) (C-terminal fluorescent protein fusion of LdcI)” returned a stoichiometry N in series [2] of 10.

Molecule “Dendra2_(T69A)-LdcI (N-terminal fluorescent protein fusion of LdcI)” displayed a stoichiometry N in series [3] of 2.

In series [4], “LdcI R97E/R468E (from UniProt P0A9H3 1-715) (enzyme)” registered a stoichiometry N of 10.

“LdcI E445A/D447A/R468E (from UniProt P0A9H3 1-715) (enzyme)” displayed a stoichiometry N in series [5] of 10.

B1: LdcI H694A (enzyme, E. coli, UniProt P0A9H3 1-715, looked up)
chain: MNVIAILNHMGVYFKEEPIRELHRALERLNFQIVYPNDRDDLLKLIENNARLCGVIFDWDKYNLELCEEISKMNENLPLYAFANTYSTLDVSLNDLRLQISFFEYALGAAEDIANKIKQTTDEYINTILPPLTKALFKYVREGKYTFCTPGHMGGTAFQKSPVGSLFYDFFGPNTMKSDISISVSELGSLLDHSGPHKEAEQYIARVFNADRSYMVTNGTSTANKIVGMYSAPAGSTILIDRNCHKSLTHLMMMSDVTPIYFRPTRNAYGILGGIPQSEFQHATIAKRVKETPNATWPVHAVITNSTYDGLLYNTDFIKKTLDVKSIHFDSAWVPYTNFSPIYEGKCGMSGGRVEGKVIYETQSTHKLLAAFSQASMIHVKGDVNEETFNEAYMMHTTTSPHYGIVASTETAAAMMKGNAGKRLINGSIERAIKFRKEIKRLRTESDGWFFDVWQPDHIDTTECWPLRSDSTWHGFKNIDNEHMYLDPIKVTLLTPGMEKDGTMSDFGIPASIVAKYLDEHGIVVEKTGPYNLLFLFSIGIDKTKALSLLRALTDFKRAFDLNLRVKNMLPSLYREDPEFYENMRIQELAQNIHKLIVHHNLPDLMYRAFEVLPTMVMTPYAAFQKELHGMTEEVYLDEMVGRINANMILPYPPGVPLVMPGEMITEESRPVLEFLQMLCEIGAHYPGFETDIAGAYRQADGRYTVKVLKEESKK
Take B1: the binding result in series [6] was “binds”.

B2: LdcI R97E (enzyme, E. coli, UniProt P0A9H3 1-715, looked up)
chain: B1 chain with R97E, A694H
For the molecule B2, in series [6], the binding result is recorded as “binds”.

B3: E. coli inducible lysine decarboxylase LdcI, wild type (enzyme, UniProt P0A9H3 1-715, looked up)
chain: B1 chain with A694H
For B3, the “stoichiometry N” value in series [7] was found to be 10.

B4: LdcI E445A/D447A (enzyme, E. coli, UniProt P0A9H3 1-715, looked up)
chain: B1 chain with E445A, D447A, A694H
Consider B4, for which the binding result in series [6] is reported as “binds”.

B5: LdcI-mGeosM (C-terminal fluorescent protein fusion of LdcI) (other)
chain: B1 chain with A694H
As for B5, the “stoichiometry N” value in series [8] is 10.

B6: LdcI H694N (enzyme, E. coli, UniProt P0A9H3 1-715, looked up)
chain: B1 chain with A694N
Take B6: the binding result in series [6] was “binds”.

B7: mGeosM-LdcI (N-terminal fluorescent protein fusion of LdcI) (other)
chain: MSAIKPDMKIKLRMEGNVNGHHFVIDGDGTGKPFEGKQSMDLEVKEGGPLPFAFDILTTAFMYGNRVFAKYPDNIQDYFKQSFPKGYSWERSLTFEDGGICIARNDITMEGDTFYNKVRFYGTNFPANGPVMQKKTLKWEPSTEKMYVRDGVLTGDIHMALLLEGNAHYRCDSRTTYKAKEKGVKLPGYHFVDHCIEILSHDKDYNKVKLYEHAVAHSGLPDNARRMNVIAILNHMGVYFKEEPIRELHRALERLNFQIVYPNDRDDLLKLIENNARLCGVIFDWDKYNLELCEEISKMNENLPLYAFANTYSTLDVSLNDLRLQISFFEYALGAAEDIANKIKQTTDEYINTILPPLTKALFKYVREGKYTFCTPGHMGGTAFQKSPVGSLFYDFFGPNTMKSDISISVSELGSLLDHSGPHKEAEQYIARVFNADRSYMVTNGTSTANKIVGMYSAPAGSTILIDRNCHKSLTHLMMMSDVTPIYFRPTRNAYGILGGIPQSEFQHATIAKRVKETPNATWPVHAVITNSTYDGLLYNTDFIKKTLDVKSIHFDSAWVPYTNFSPIYEGKCGMSGGRVEGKVIYETQSTHKLLAAFSQASMIHVKGDVNEETFNEAYMMHTTTSPHYGIVASTETAAAMMKGNAGKRLINGSIERAIKFRKEIKRLRTESDGWFFDVWQPDHIDTTECWPLRSDSTWHGFKNIDNEHMYLDPIKVTLLTPGMEKDGTMSDFGIPASIVAKYLDEHGIVVEKTGPYNLLFLFSIGIDKTKALSLLRALTDFKRAFDLNLRVKNMLPSLYREDPEFYENMRIQELAQNIHKLIVHHNLPDLMYRAFEVLPTMVMTPYAAFQKELHGMTEEVYLDEMVGRINANMILPYPPGVPLVMPGEMITEESRPVLEFLQMLCEIGAHYPGFETDIHGAYRQADGRYTVKVLKEESKK
As for B7, the “stoichiometry N” value in series [8] came to 12.

What is called stoichiometry N is the number of molecules, sites or subunits per partner or assembly.
